Laboratory results reported in patent US7271245B2, “Methods and compositions for inhibition of metastasis” (The Scripps Research Institute, priority 2004, dated 2007).

Test system: matrix deprived BMS breast cancer cells
Test: Apoptosis of matrix deprived breast cancer cells
Assay type: cell-based, human
Conditions: 3.7 μM scFv, ultra-low-adhesion plates, 20 hrs
Experimental: FIGS. 3A, 3B, 3C, 3D, 3E. scFv Bc-12 and Bc-15 inhibit αvβ3 mediated adhesive breast cancer cell functions. (A) Adhesion of BMS human breast cancer cells to fibrinogen (Fg), vitronectin (VN) or type I collagen (Col I) in the absence or presence of 3 μM Bc-12, Bc-15 or their RGE mutants Mut-12, Mut-15, compared to 200 μM GRGDSPK peptide (SEQ ID NO: 11). Protein coating concentrations: 10 μg/ml (VN, Col I) or 20 μg/ml (Fg). Adhesion time: 30 min at 37° C. (B) Effect of scFvs on haptotactic BMS cell migration toward a fibrinogen substrate (16 hrs at 37° C. in transwell chambers with or without 2 μM Bc-12, Bc-15 or their RGE mutants Mut-12 or Mut-15, compared to 200 μM GRGDSPK peptide) (SEQ ID NO: 11). (C) Effect of scFvs on breast cancer cell arrest during blood flow. Metastatic BMS cells, labeled with hydroethidine, were suspended in human blood (anticoagulated with 50 nM PPACK) and perfused over a collagen I matrix at a venous wall shear rate of 50 s^−1. Under these conditions, breast cancer cells arrest by αvβ3 mediated binding to adherent, thrombus forming platelets. Tumor cell adhesion was quantified by image acquisition at 30 predefined positions during blood flow. Left: representative images of platelet signal (thrombi, green fluorescence) and tumor cell signal (red fluorescence) at identical x,y positions. […]

B1: Bc-12: patient derived human scFv antibody against activated αvβ3 with RGD motif in CDR-H3; cDNA ATCC PTA-6303 (protein)
scFv: MAQVQLVQSGAEVKKPGASVKVSCKASGYTFSNYGITWVRQAPGQGLEWMGWINNGNTHYAQKFQGRVTMTTDTSTSTAYMELRSLRSDDTAVYYCARDPRGDDEPYWGQGTLVTVSSGGGGSGGGGSGGGGSEIVLTQSPLSLPVTLGQPASISCRSSQNLVYSDGNTYLSWFQQRPGQSPRRLIYKVSNRDSGVPDRFSGSGSGTDFTLKISRVEAEDIGVYYCMQGTHWPPRTFGQGTKVEIKRGLGGLVDYKDDDDK
viability of matrix deprived cells (apoptosis): resulted in apoptotic cell death
